Test results taken from PMC3640471, “The structures of Arabidopsis Deg5 and Deg8 reveal new insights into HtrA proteases” (Acta Crystallographica Section D: Biological Crystallography, 2013).
One block for each molecule: values may come before it.

Tests used:
[1] = molecular target: Deg8 (sample of the analytical SEC) (Arabidopsis thaliana) (UniProt Q9LU10); test: SEC; analytical SEC of Deg8 at pH 8.0; Superdex 200 10/300 GL, 10 µM protein, sodium phosphate, 150 mM NaCl
[2] = molecular target: Deg8 (sample of the analytical SEC) (Arabidopsis thaliana) (UniProt Q9LU10); test: SEC; analytical SEC of Deg8 at pH 6.0; Superdex 200 10/300 GL, 10 µM protein, sodium phosphate, 150 mM NaCl
[3] = molecular target: the molecule itself; test: crystal structure; Deg5 (S266A), space group C2, three molecules per asymmetric unit, 2.6 Å
[4] = molecular target: the molecule itself; test: SEC; analytical SEC, Superdex 200 10/300 GL, 10 µM protein, sodium phosphate pH 6.0 or 8.0, 150 mM NaCl
[5] = molecular target: the molecule itself; test: crystal structure; Deg8 (S292A), space group C2, three molecules per asymmetric unit, 2.0 Å; hexamer in the crystal

- stoichiometry N [1]: 6
- stoichiometry N [2]: 3
Molecule: Deg8 (sample of the analytical SEC) (from UniProt Q9LU10 91-448) (enzyme)

B1: Arabidopsis thaliana Deg5 (S266A) (enzyme)
chain: LEQFKEKEEELEEEEERNVNLFQKTSPSVVYIEAIELPKTSSGDILTDEENGKIEGTGSGFVWDKLGHIVTNYHVIAKLATDQFGLQRCKVSLVDAKGTRFSKEGKIVGLDPDNDLAVLKIETEGRELNPVVLGTSNDLRVGQSCFAIGNPYGYENTLTIGVVSGLGREIPSPNGKSISEAIQTDADINSGNAGGPLLDSYGHTIGVNTATFTRKGSGMSSGVNFAIPIDTVVRTVPYLIVYGTAYRDR
notes: HtrA protease Deg5 of Arabidopsis thaliana, catalytic Ser266 mutated to alanine; PDB 4ic5 holds the crystallised chain; source: purified; expression and purification described previously (Fan et al., 2012)
- stoichiometry N [3]: 3

B2: Deg5 (E87A/D260A/S266A) (enzyme, Arabidopsis thaliana)
chain: LEQFKEKEEELEEAEERNVNLFQKTSPSVVYIEAIELPKTSSGDILTDEENGKIEGTGSGFVWDKLGHIVTNYHVIAKLATDQFGLQRCKVSLVDAKGTRFSKEGKIVGLDPDNDLAVLKIETEGRELNPVVLGTSNDLRVGQSCFAIGNPYGYENTLTIGVVSGLGREIPSPNGKSISEAIQTDAAINSGNAGGPLLDSYGHTIGVNTATFTRKGSGMSSGVNFAIPIDTVVRTVPYLIVYGTAYRDR
notes: HtrA protease Deg5 of Arabidopsis thaliana with E87A, D260A and S266A; parent is Deg5 (S266A), m1; also called Deg5 (S266A/E87A/D260A) triple mutant; mutant (E87A/D260A/S266A)
- stoichiometry N [4]: 3

B3: Arabidopsis thaliana Deg8 (S292A) (enzyme, UniProt Q9LU10 91-448, looked up)
chain: LGDPSVATVEDVSPTVFPAGPLFPTEGRIVQLFEKNTYSVVNIFDVTLRPQLKMTGVVEIPEGNGSGVVWDGQGYIVTNYHVIGNALSRNPSPGDVVGRVNILASDGVQKNFEGKLVGADRAKDLAVLKVDAPETLLKPIKVGQSNSLKVGQQCLAIGNPFGFDHTLTVGVISGLNRDIFSQTGVTIGGGIQTDAAINPGNAGGPLLDSKGNLIGINTAIFTQTGTSAGVGFAIPSSTVLKIVPQLIQFSKVLRAGINIELAPDPVANQLNVRNGALVLQVPGKSLAEKAGLHPTSRGFAGNIVLGDIIVAVDDKPVKNKAELMKILDEYSVGDKVTLKIKRGNEDLELKISLEEKSS
notes: HtrA protease Deg8 of Arabidopsis thaliana, 358 residues Leu91-Ser448, catalytic Ser292 mutated to alanine; residues 104-448 defined in the density; source: expression and purification described previously (Shan et al., 2013)
- stoichiometry N [5]: 6
